± gives the uncertainty stated by the source.
Test: self-splicing fitness, log relative to wild type (ln ratio); higher = more splicing; Tetrahymena group I intron in knt gene, E. coli kanamycin selection, DiMSum; sequences stand for … in CUCUCU…GGAGGGAAAAGUUAUCAGGCAUGCACCUGGUAGCUAGUCUUUAAACCAAUAGAUUGCAUCGGUUUAAAAGGCAAGACCGUCAAAUUGCGGGAAAGGGGUCAACAGCCGUUCAGUACCAAGUCUCAGGGGAAACUUUGAGAUGGCCUUGCAAAGGGUAUGGUAAUAAGCUGACGGACAUGGUCCUAACCACGCAGCCAAGUCCUAAGUCAACAGAUCUUCUGUUGAUAUGGAUGCAGUUCACAGACUAAAUGUCGGUCGGGGAAGAUGUAUUCUUCUCAUAAGAUAUAGUCGGACCUCUCCUUAAUGGGAGCUAGCGGAUGAAGUGAUGCAACACUGGAGCCGCUGGGAACUAAUUUGUAUGCGAAAGUAUAUUGAUUAGUUUUGGAGUACUCGUGGUCG
Procedure, shortened: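 Colonies from six replicate transformations of E. coli BL21(DE3) were pooled and amplicon-sequenced on an Illumina HiSeq 2500. The library placed an intron with all eight P1ex-region nucleotides randomised inside the knt kanamycin-resistance gene on pET-22b(+), and cells grew overnight at 37°C or 30°C on LB agar with or without 25 μg/mL kanamycin (plus 100 μg/mL carbenicillin, 50 μM IPTG, 0.2% rhamnose). Fitness is the DiMSum error-weighted combination of wild-type-normalised replicate fold changes, kanamycin versus none.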

Sequence	self-splicing fitness (ln) (30 °C)	self-splicing fitness (ln) (37 °C)
UACGAGCAAUAUUACGAGUU	-2.32 ± 0.2	-0.892 ± 0.23
UACGAGCAAUAUUACGCAAC	-2.85 ± 0.22	-2.19 ± 0.26
UACGAGCAAUAUUACGCAUU	-3.48 ± 0.43	-2.09 ± 0.46
UACGAGCAAUAUUACGCCAA	-2.18 ± 0.41	
UACGAGCAAUAUUACGCCGC	-2.03 ± 0.41	-2.1 ± 0.3
UACGAGCAAUAUUACGCCUA	-1.81 ± 0.15	-0.823 ± 0.16
UACGAGCAAUAUUACGCGCA	-1.42 ± 0.19	-1.03 ± 0.17
UACGAGCAAUAUUACGCGGC	-3.65 ± 0.37	-2.28 ± 0.28
UACGAGCAAUAUUACGGAGA	-3.09 ± 0.33	-2.84 ± 0.45
UACGAGCAAUAUUACGGAUG	-2.95 ± 0.43	-1.27 ± 0.34
UACGAGCAAUAUUACGGCAG	-2.22 ± 0.23	-1.65 ± 0.21
UACGAGCAAUAUUACGGCCG	-0.704 ± 0.13	-1.01 ± 0.21
UACGAGCAAUAUUACGGUGU		-3.09 ± 0.29
UACGAGCAAUAUUACGUCAU	-4.92 ± 0.45	-3.92 ± 0.39
UACGAGCAAUAUUACGUCGC	-3.3 ± 0.47	-2.49 ± 0.42
UACGAGCAAUAUUACGUGCC	-2.35 ± 0.29	
UACGAGCAAUAUUACGUUAA	-3.08 ± 0.26	-1.57 ± 0.14
UACGAGCAAUAUUACGUUAC	-2.96 ± 0.42	
UACGAGCAAUAUUACGUUGG		-2.22 ± 0.26
UACUAGCAAUAUUACGACCU	-2.01 ± 0.13	-0.83 ± 0.15
UACUAGCAAUAUUACGACGA	-0.687 ± 0.058	-0.172 ± 0.066
UACUAGCAAUAUUACGACUC	-1.8 ± 0.42	-0.907 ± 0.34
UACUAGCAAUAUUACGACUU	-1.27 ± 0.08	-0.271 ± 0.11
UACUAGCAAUAUUACGAUAC	-2.63 ± 0.2	-1.91 ± 0.25
UACUAGCAAUAUUACGAUCA	-1.21 ± 0.07	-0.774 ± 0.063

Sequence	self-splicing fitness (ln) (30 °C)	self-splicing fitness (ln) (37 °C)
UACUAGCAAUAUUACGAUCG	0.0068 ± 0.092	0.387 ± 0.12
UACUAGCAAUAUUACGCAAC	-2.26 ± 0.26	-1.85 ± 0.34
UACUAGCAAUAUUACGCAAG	-2.98 ± 0.33	-1.72 ± 0.24
UACUAGCAAUAUUACGCCUC	-2.28 ± 0.24	-1.78 ± 0.28
UACUAGCAAUAUUACGCUAA	-1.31 ± 0.14	-0.697 ± 0.1
UACUAGCAAUAUUACGCUAU	-2.8 ± 0.21	-1.32 ± 0.16
UACUAGCAAUAUUACGCUUA	-1.38 ± 0.11	-0.588 ± 0.11
UACUAGCAAUAUUACGGACG	-0.258 ± 0.098	0.0809 ± 0.12
UACUAGCAAUAUUACGGAGG	-2.77 ± 0.17	-1.28 ± 0.13
UACUAGCAAUAUUACGGCCG	0.508 ± 0.14	0.00712 ± 0.17
UACUAGCAAUAUUACGUCAG	-1.72 ± 0.2	-1.43 ± 0.21
UACUAGCAAUAUUACGUCGU	-2.15 ± 0.16	-1.96 ± 0.18
UACUAGCAAUAUUACGUGAC	-2.29 ± 0.13	-1.93 ± 0.26
UACUAGCAAUAUUACGUGGG	-3.32 ± 0.19	-2.46 ± 0.18
UACUAGCAAUAUUACGUUCA	-0.586 ± 0.08	-0.193 ± 0.09
UAGAAGCAAUAUUACGAACG	-0.0437 ± 0.11	0.576 ± 0.14
UAGAAGCAAUAUUACGAAGC		-2.2 ± 0.24
UAGAAGCAAUAUUACGAGGU		-2.14 ± 0.2
UAGAAGCAAUAUUACGCAAG	-2.33 ± 0.2	-0.64 ± 0.17
UAGAAGCAAUAUUACGCAGC	-4.25 ± 0.46	-2.93 ± 0.31
UAGAAGCAAUAUUACGCAUU	-2.41 ± 0.29	-2.59 ± 0.3
UAGAAGCAAUAUUACGCUCU	-2.53 ± 0.2	-2.75 ± 0.32
UAGAAGCAAUAUUACGCUUA	-1.9 ± 0.15	-0.832 ± 0.14
UAGAAGCAAUAUUACGGACC	-2 ± 0.4	-0.433 ± 0.34
UAGAAGCAAUAUUACGGAGA	-3.26 ± 0.39	-2.46 ± 0.26

Sequence	self-splicing fitness (ln) (30 °C)	self-splicing fitness (ln) (37 °C)
UAGAAGCAAUAUUACGGCCU	-0.838 ± 0.12	-1.15 ± 0.15
UAGAAGCAAUAUUACGGGUA	-1.02 ± 0.16	-0.329 ± 0.14
UAGAAGCAAUAUUACGGUAA	-1.64 ± 0.091	-0.669 ± 0.073
UAGAAGCAAUAUUACGGUCG	-0.229 ± 0.1	0.153 ± 0.14
UAGAAGCAAUAUUACGUAAG	-2.31 ± 0.13	-1.3 ± 0.16
UAGAAGCAAUAUUACGUCAG	-0.574 ± 0.078	-0.0756 ± 0.092
UAGAAGCAAUAUUACGUCAU	-2.84 ± 0.2	-1.99 ± 0.15
UAGAAGCAAUAUUACGUCCA	-0.0908 ± 0.069	0.309 ± 0.1
UAGAAGCAAUAUUACGUCGA	-1.61 ± 0.14	-0.578 ± 0.14
UAGAAGCAAUAUUACGUGAA	-2.05 ± 0.07	-1.5 ± 0.092
UAGAAGCAAUAUUACGUGGG	-3.09 ± 0.18	-2 ± 0.19
UAGAAGCAAUAUUACGUGUG	-0.994 ± 0.069	-0.74 ± 0.084
UAGCAGCAAUAUUACGAAAU	-1.96 ± 0.24	-1.66 ± 0.28
UAGCAGCAAUAUUACGACAC		-2.15 ± 0.33
UAGCAGCAAUAUUACGACAG	-0.896 ± 0.1	-0.68 ± 0.13
UAGCAGCAAUAUUACGACGC	-3.94 ± 0.31	-1.82 ± 0.19
UAGCAGCAAUAUUACGAGCU	-1.5 ± 0.13	-0.893 ± 0.14
UAGCAGCAAUAUUACGAUAU	-2.42 ± 0.15	-2.98 ± 0.19
UAGCAGCAAUAUUACGAUCU	-1.92 ± 0.081	-1.08 ± 0.077
UAGCAGCAAUAUUACGCACG	-0.945 ± 0.13	-0.318 ± 0.14
UAGCAGCAAUAUUACGCCAG	-1.46 ± 0.13	-0.751 ± 0.19
UAGCAGCAAUAUUACGCCCA	-0.744 ± 0.3	0.445 ± 0.47
UAGCAGCAAUAUUACGGAAA	-1.82 ± 0.17	-1.81 ± 0.29
UAGCAGCAAUAUUACGGACU	-1.07 ± 0.1	-0.713 ± 0.15
UAGCAGCAAUAUUACGGCGC	-2.08 ± 0.23	0.611 ± 0.23

Sequence	self-splicing fitness (ln) (30 °C)	self-splicing fitness (ln) (37 °C)
UAGCAGCAAUAUUACGGUCC	-3.66 ± 0.26	-2.03 ± 0.24
UAGCAGCAAUAUUACGGUUA	-0.0652 ± 0.056	-0.181 ± 0.064
UAGCAGCAAUAUUACGUAAC	-3.52 ± 0.19	-2.42 ± 0.21
UAGCAGCAAUAUUACGUCGA	-1.12 ± 0.071	-0.528 ± 0.082
UAGCAGCAAUAUUACGUGGA	-2.16 ± 0.12	-1.46 ± 0.11
UAGCAGCAAUAUUACGUUAU	-3.74 ± 0.23	-2.92 ± 0.24
UAGGAGCAAUAUUACGAAAA	-3.01 ± 0.45	-1.65 ± 0.41
UAGGAGCAAUAUUACGAACA	-2.08 ± 0.29	
UAGGAGCAAUAUUACGAAGC	-4.41 ± 0.33	-1.44 ± 0.26
UAGGAGCAAUAUUACGACAU	-3.83 ± 0.039	-2.8 ± 0.047
UAGGAGCAAUAUUACGACGU		-1.9 ± 0.38
UAGGAGCAAUAUUACGAUAC	-4.56 ± 0.32	-1.86 ± 0.28
UAGGAGCAAUAUUACGAUGG	-3.36 ± 0.28	-1.4 ± 0.24
UAGGAGCAAUAUUACGCAGG	-2 ± 0.21	
UAGGAGCAAUAUUACGCGUA	-1.12 ± 0.15	-0.31 ± 0.12
UAGGAGCAAUAUUACGGCGG	-2.34 ± 0.24	-0.013 ± 0.26
UAGGAGCAAUAUUACGGGCA	-2.72 ± 0.26	-2.63 ± 0.39
UAGGAGCAAUAUUACGGGUG	-2.74 ± 0.27	-1.14 ± 0.26
UAGGAGCAAUAUUACGGUAU	-2.93 ± 0.36	-2.66 ± 0.3
UAGGAGCAAUAUUACGGUCU	-1.36 ± 0.37	
UAGGAGCAAUAUUACGUGAG	-2.42 ± 0.14	-1.55 ± 0.14
UAGUAGCAAUAUUACGACCC	-0.998 ± 0.35	-1.28 ± 0.43
UAGUAGCAAUAUUACGCAAA	-3.4 ± 0.3	-2.28 ± 0.2
UAGUAGCAAUAUUACGCACA	-1.2 ± 0.1	-0.493 ± 0.12

Source: the supplement of paper PMC7877785
